Measurements from patent US20120237528A1 (Janssen / Centocor, published 2012).
Numbering of substitutions follows the chain as printed.

B1: M10 (antibody, V domains shown)
VH: EVQLVQSGAEVKKPGESLRISCKGSGYTFITYWIEWVRQMPGKGLEWMGDILPGSGSTNYNENFKGHVTISADKSISTAYLQWSSLKASDTAMYYCARSGYYGNSGFAYWGQGTLVTVSS
VL: DIVMTQTPLSLPVTPGEPASISCKSSQSLLSSGNQKNYLTWYLQKPGQSPQLLIYWASTRESGVPDRFSGSGSGTDFTLKISRVEAEDVGVYYCQNDYTYPLTFGQGTKLEIK
notes: complete MAb; FR4 is its own entry; also called H15/L3
B2: M37 (antibody, V domains shown)
VH: QVQLVQSGAEVKKPGSSVKVSCKASGYTFITYWIEWVRQAPGQGLEWMGDILPGSGSTNYNENFKGRVTITADESTSTAYMELSSLRSEDTAVYYCARSGYYGNSGFAYWGQGTLVTVSS
VL: DIVMTQSPDSLAVSLGERATINCKSSQSLLSSGNQKNYLTWYQQKPGQPPKLLIYWASTRESGVPDRFSGSGSGTDFTLTISSLQAEDVAVYYCQNDYTYPLTFGQGTKLEIK
notes: complete MAb; FR4 is its own entry; also called H19/L2
B3: M42 (antibody, V domains shown)
VH: B2 VH
VL: B1 VL with L11S, P15L, E17Q, Y42L, L43Q, K45R, S49P, Q51R, S73A
notes: complete MAb; FR4 is its own entry; also called H19/L7
B4: M46 (antibody, V domains shown)
VH: B2 VH with S16A, I70M, A72T, E74T, S84R, E89D
VL: B1 VL with T7S
notes: complete MAb; FR4 is its own entry; also called H20/L4
B5: M68 (antibody, V domains shown)
VH: B2 VH with N61A, E62Q, N63K, K65Q
VL: B1 VL with P12S, E17Q, S49P
notes: complete MAb; FR4 is its own entry; also called H23/L5
B6: M26 (antibody, V domains shown)
VH: B2 VH with S16A, G44R, A72R, E74T, T76A
VL: B1 VL with P12S, E17Q, S49P
notes: complete MAb; FR4 is its own entry; also called H17/L5
B7: M72 (antibody, V domains shown)
VH: EVQLVQSGAEVKKPGATVKISCKVSGYTFITYWIEWVQQAPGKGLEWMGDILPGSGSTNYAEKFQGRVTITADTSTDTAYMELSSLRSEDTAVYYCATSGYYGNSGFAYWGQGTLVTVSS
VL: B2 VL
notes: complete MAb; FR4 is its own entry; also called H24/L2
B8: M14 (antibody, V domains shown)
VH: B1 VH
VL: B1 VL with L11S, P15L, E17Q, Y42L, L43Q, K45R, S49P, Q51R, S73A
notes: complete MAb; FR4 is its own entry; also called H15/L7
B9: M77 (antibody, V domains shown)
VH: B7 VH
VL: B1 VL with L11S, P15L, E17Q, Y42L, L43Q, K45R, S49P, Q51R, S73A
notes: complete MAb; FR4 is its own entry; also called H24/L7
B10: M28 (antibody, V domains shown)
VH: B2 VH with S16A, G44R, A72R, E74T, T76A
VL: B1 VL with L11S, P15L, E17Q, Y42L, L43Q, K45R, S49P, Q51R, S73A
notes: complete MAb; FR4 is its own entry; also called H17/L7
B11: M75 (antibody, V domains shown)
VH: B7 VH
VL: B1 VL with P12S, E17Q, S49P
notes: complete MAb; FR4 is its own entry; also called H24/L5
B12: M49 (antibody, V domains shown)
VH: B2 VH with S16A, I70M, A72T, E74T, S84R, E89D
VL: B1 VL with L11S, P15L, E17Q, Y42L, L43Q, K45R, S49P, Q51R, S73A
notes: complete MAb; FR4 is its own entry; also called H20/L7
B13: M70 (antibody, V domains shown)
VH: B2 VH with N61A, E62Q, N63K, K65Q
VL: B1 VL with L11S, P15L, E17Q, Y42L, L43Q, K45R, S49P, Q51R, S73A
notes: complete MAb; FR4 is its own entry; also called H23/L7
B14: M74 (antibody, V domains shown)
VH: B7 VH
VL: B1 VL with T7S
notes: complete MAb; FR4 is its own entry; also called H24/L4
B15: M21 (antibody, V domains shown)
VH: B2 VH with S16A, I70M, A72R, E74T, A79V
VL: B1 VL with L11S, P15L, E17Q, Y42L, L43Q, K45R, S49P, Q51R, S73A
notes: complete MAb; FR4 is its own entry; also called H16/L7
B16: M73 (antibody, V domains shown)
VH: B7 VH
VL: B1 VL
notes: complete MAb; FR4 is its own entry; also called H24/L3
B17: M25 (antibody, V domains shown)
VH: B2 VH with S16A, G44R, A72R, E74T, T76A
VL: B1 VL with T7S
notes: complete MAb; FR4 is its own entry; also called H17/L4
B18: M66 (antibody, V domains shown)
VH: B2 VH with N61A, E62Q, N63K, K65Q
VL: B1 VL
notes: complete MAb; FR4 is its own entry; also called H23/L3
B19: M40 (antibody, V domains shown)
VH: B2 VH
VL: B1 VL with P12S, E17Q, S49P
notes: complete MAb; FR4 is its own entry; also called H19/L5
B20: M24 (antibody, V domains shown)
VH: B2 VH with S16A, G44R, A72R, E74T, T76A
VL: B1 VL
notes: complete MAb; FR4 is its own entry; also called H17/L3
B21: M39 (antibody, V domains shown)
VH: B2 VH
VL: B1 VL with T7S
notes: complete MAb; FR4 is its own entry; also called H19/L4
B22: M47 (antibody, V domains shown)
VH: B2 VH with S16A, I70M, A72T, E74T, S84R, E89D
VL: B1 VL with P12S, E17Q, S49P
notes: complete MAb; FR4 is its own entry; also called H20/L5
B23: M67 (antibody, V domains shown)
VH: B2 VH with N61A, E62Q, N63K, K65Q
VL: B1 VL with T7S
notes: complete MAb; FR4 is its own entry; also called H23/L4
B24: murine antibody 10H10 (antibody, V domains shown)
VH: QVHLQQSGAELMKPGASVKISCKASGYTFITYWIEWVKQRPGHGLEWIGDILPGSGSTNYNENFKGKATFTADSSSNTAYMQLSSLTSEDSAVYYCARSGYYGNSGFAYWGQGTLVTVSA
VL: DIVMTQSPSSLTVTAGEKVTMSCKSSQSLLSSGNQKNYLTWYQQIPGQPPKLLIYWASTRESGVPDRFTGSGSGTDFTLTINSVQAEDLAVYYCQNDYTYPLTFGAGTKLELK

Target: T1, Cynomolgous monkey (cyno) TF-ECD with His Tag (cynomolgus monkey, UniProt P13726 33-251 (human entry))
T1 construct: also called cyno antigen
T1 chain: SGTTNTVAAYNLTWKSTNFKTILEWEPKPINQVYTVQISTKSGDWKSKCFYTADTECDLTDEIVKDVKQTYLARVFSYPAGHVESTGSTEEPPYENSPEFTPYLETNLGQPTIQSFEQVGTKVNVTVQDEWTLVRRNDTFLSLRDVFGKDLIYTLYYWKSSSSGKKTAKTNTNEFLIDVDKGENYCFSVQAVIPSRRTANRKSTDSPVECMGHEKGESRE
Test: Biacore

Question: For B1, which Kd is on record?
Answer: 1.57 nM

Target: T2, recombinant extracellular domain (ECD) of human TF, amino acid 1-219 of the mature chain, C-terminal His6-tag (human, UniProt P13726 33-251)
T2 construct: expressed in a mammalian system; used for ELISA and Biacore; biotinylated by NHS-ester for the Fab ELISA; also called His6-TF-ECD1-219; HumanTF1-219
Test: Biacore

Question: What does the source list for B2?
Answer: Kd: 0.54 nM; koff: 3.7e-05 s⁻¹; kon: 69000 M⁻¹ s⁻¹

Question: Which Kd does the source give for B3 here?
Answer: 1.02 nM

Question: And the koff?
Answer: 8.2e-05 s⁻¹

Question: What about the kon of the same binder?
Answer: 80400 M⁻¹ s⁻¹

Question: With B4 as the binder, how does the Kd read?
Answer: 0.49 nM

Question: What about the koff of the same binder?
Answer: 4.4e-05 s⁻¹

Question: What about the kon of the same binder?
Answer: 90000 M⁻¹ s⁻¹

Question: B5 was tested. Which Kd did it give?
Answer: 1.6 nM

Question: What about the koff of the same binder?
Answer: 0.000103 s⁻¹

Question: And the kon?
Answer: 64300 M⁻¹ s⁻¹

Question: Which results are given for B6?
Answer: Kd: 1.13 nM; koff: 9.3e-05 s⁻¹; kon: 82600 M⁻¹ s⁻¹

Target: T2, recombinant extracellular domain (ECD) …
Test: direct ELISA, 50 ng/ml

Question: Does B7 bind?
Answer: binds

Question: Does B8 bind?
Answer: binds

Question: Does B9 bind?
Answer: binds

Question: Does B10 bind?
Answer: binds

Question: Does B11 bind?
Answer: binds

Question: Does B12 bind?
Answer: binds

Question: Does B13 bind?
Answer: binds

Question: Does B14 bind?
Answer: binds

Question: Does B15 bind?
Answer: binds

Question: Does B16 bind?
Answer: binds

Question: Does B17 bind?
Answer: binds

Question: Does B18 bind?
Answer: binds

Question: Does B19 bind?
Answer: binds

Question: Does B20 bind?
Answer: binds

Question: Does B21 bind?
Answer: binds

Question: Does B22 bind?
Answer: binds

Question: Does B23 bind?
Answer: binds

Target: Innovin, lyophilized recombinant human tissue factor combined with phospholipids (human, UniProt P13726 33-295, limits assumed)
Test: cell-based or functional assay

Question: For B24, which “T½ Max (seconds), coagulation of human plasma” value (“T½ Max (seconds), coagulation” for short) is on record?
Answer: 191 s

Question: B2 was tested. Which “T½ Max (seconds), coagulation” value did it give?
Answer: 196 s

Question: Which “T½ Max (seconds), coagulation” value does the source give for B1 here?
Answer: 196 s

Question: B3 was tested. Which “T½ Max (seconds), coagulation” value did it give?
Answer: 202 s

Question: B4 was tested. Which “T½ Max (seconds), coagulation” value did it give?
Answer: 195 s

Question: B5 was tested. Which “T½ Max (seconds), coagulation” value did it give?
Answer: 207 s

Question: For B6, which “T½ Max (seconds), coagulation” value is on record?
Answer: 186 s

Target: endogenous human tissue factor on MDA-MB-231 breast cancer cells (human, UniProt P13726 33-295)
Test: cell-based or functional assay

Question: For B24, which “% IL-8 Inhibition” value is on record?
Answer: 93.9%

Question: With B2 as the binder, how does the “% IL-8 Inhibition” value read?
Answer: 71.2%

Question: Which “% IL-8 Inhibition” value does the source give for B1 here?
Answer: 90.7%

Question: B3 was tested. Which “% IL-8 Inhibition” value did it give?
Answer: 86%

Question: Which “% IL-8 Inhibition” value does the source give for B4 here?
Answer: 82.5%

Question: With B5 as the binder, how does the “% IL-8 Inhibition” value read?
Answer: 89.8%

Question: B6 was tested. Which “% IL-8 Inhibition” value did it give?
Answer: 79.1%

Target: T2, recombinant extracellular domain (ECD) …
Test: TF-ECD binding ELISA, chemiluminescent

Question: With B1 as the binder, how does the EC50 read?
Answer: 0.0105 µg/mL

Target: T1, Cynomolgous monkey (cyno) TF-ECD with …
Test: TF-ECD binding ELISA, chemiluminescent

Question: How did the EC50 turn out when B1 was run?
Answer: 0.0196 µg/mL
